# Assay results as given in patent US20240116985A1, “STAPLED PEPTIDES AND METHODS THEREOF” (priority 2020, published 2024).
# Starred links: 1 amine or outer side, 2 acyl side, 3 side chain; linkers in the order of their positions; H or OH if unused. Positions of bridges follow the written chain, without caps; N, C: chain ends. Non-standard residues stand in square brackets, D forms with d. Primed or numbered codes have the meaning given here. PyrS2″ = (S)-3-amino-1-((pent-4-en-1-yloxy)carbonyl)pyrrolidine-3-carboxylic acid (stapling residue), C=CCCCOC(=O)N1CC[C@@](N[*:1])(C(=O)[*:2])C1; (bismethoxyethylamine)GlnR = [bismethoxyethylamine]GlnR, N5,N5-bis(2-methoxyethyl)-L-glutamine, COCCN(CCOC)C(=O)CC[C@H](N[*:1])C(=O)[*:2]; B5(4) = 2,2-bis(4-pentenyl)glycine = 2-amino-2-(pent-4-en-1-yl)hept-6-enoic acid (stitching residue), C=CCCCC(CCCC=C)(N[*:1])C(=O)[*:2]; B5(5) = 2,2-bis(4-pentenyl)glycine, 2-amino-2-(pent-4-en-1-yl)hept-6-enoic acid (stitching residue), C=CCCCC(CCCC=C)(N[*:1])C(=O)[*:2]; PyrS2 = (S)-3-amino-1-((pent-4-en-1-yloxy)carbonyl)pyrrolidine-3-carboxylic acid, C=CCCCOC(=O)N1CC[C@@](N[*:1])(C(=O)[*:2])C1; B5(19) = 2-amino-2-(pent-4-en-1-yl)hept-6-enoic acid (bis(4-pentenyl)glycine), C=CCCCC(CCCC=C)(N[*:1])C(=O)[*:2]; B5(25) = 2-amino-2-(pent-4-en-1-yl)hept-6-enoic acid (stitching residue), C=CCCCC(CCCC=C)(N[*:1])C(=O)[*:2]; B5(3) = 2,2-bis(4-pentenyl)glycine (stitching residue), C=CCCCC(CCCC=C)(N[*:1])C(=O)[*:2]; B5 = 2-amino-2-(pent-4-en-1-yl)hept-6-enoic acid, C=CCCCC(CCCC=C)(N[*:1])C(=O)[*:2]; PyrR = (R)-1-((allyloxy)carbonyl)-3-aminopyrrolidine-3-carboxylic acid; RbGlu = 3-aminopentanedioic acid, R/S prefix not explained; SbGlu = 3-aminopentanedioic acid, R/S prefix not explained; Phe(3-COOH) = N[C@@H](Cc1cccc(C(=O)O)c1)C(=O)O; Trp(5-F) = N[C@@H](Cc1c[nH]c2ccc(F)cc12)C(=O)O; Phe(2-CF3) = N[C@@H](Cc1ccccc1C(F)(F)F)C(=O)O; Trp(1-Me) = Cn1cc(C[C@H](N)C(=O)O)c2ccccc21; Phe(2-Cl) = N[C@@H](Cc1ccccc1Cl)C(=O)O; dαMeGly(allyl) = C=CC[C@@](C)(N)C(=O)O; 1Nal = N[C@@H](Cc1cccc2ccccc12)C(=O)O; Bta = N[C@@H](Cc1csc2ccccc12)C(=O)O; αAllylPro = C=CC[C@@]1(C(=O)O)CCCN1; tBuAla = CC(C)(C)C[C@H](N)C(=O)O; 3Thi = N[C@@H](Cc1ccsc1)C(=O)O; Cha = N[C@@H](CC1CCCCC1)C(=O)O; S8 = C=CCCCCCC[C@](C)(N)C(=O)O; Thr(ol) = C[C@@H](O)[C@H](N)CO; Phe(ol) = N[C@H](CO)Cc1ccccc1; R5 = C=CCCC[C@@](C)(N)C(=O)O; Nle = CCCC[C@H](N)C(=O)O; Abu = CC[C@H](N)C(=O)O; Aib = CC(C)(N)C(=O)O
# B1: I-1097 (peptide)
# peptide: Ac-[αAllylPro]D[tBuAla][B5(3)]DDAAFL[S8][Phe(2-Cl)][Bta][dT]-NH2
# modifications: staple 1-4, 4-11
# B2: I-1099 (peptide)
# peptide: Ac-[αAllylPro]D[tBuAla][B5(3)]DDAAFS[PyrS2″]F[Bta]S-NH2
# modifications: staple 1-4, 4-11
# B3: I-1105 (peptide)
# peptide: Ac-[αAllylPro]D[tBuAla][B5(3)]DDAA[Cha]S[PyrS2″]F[Bta]S-NH2
# modifications: staple 1-4, 4-11
# B4: I-1106 (peptide)
# peptide: Ac-[αAllylPro]D[tBuAla][B5(3)]DDAAFS[PyrS2″][Cha][Bta]S-NH2
# modifications: staple 1-4, 4-11
# B5: I-785 (peptide)
# peptide: Ac-[αAllylPro]D[tBuAla][B5(5)]DDAAFN[PyrS2][3Thi][Bta]-NH2
# modifications: staple 1-4, 4-11
# B6: I-789 (peptide)
# peptide: Ac-[αAllylPro]D[tBuAla][B5(5)]DDAAFN[PyrS2][3Thi][1Nal]H-NH2
# modifications: staple 1-4, 4-11
# B7: I-799 (peptide)
# peptide: Ac-[αAllylPro]D[tBuAla][B5]DDAAFN[PyrS2][3Thi][Trp(1-Me)]H-NH2
# modifications: staple 1-4, 4-11
# B8: I-800 (peptide)
# peptide: Ac-[αAllylPro]D[tBuAla][B5]DDAAFN[PyrS2][3Thi][Trp(5-F)]H-NH2
# modifications: staple 1-4, 4-11
# B9: I-1307 (peptide)
# peptide: Ac-[αAllylPro]D[Cha][B5(5)]DDAAFL[PyrS2″][Phe(2-Cl)][Bta][Thr(ol)]
# modifications: staple 1-4, 4-11
# B10: I-1309 (peptide)
# peptide: Ac-[αAllylPro]D[tBuAla][B5(5)]DTAAFT[PyrS2″][Phe(2-Cl)][Bta][Thr(ol)]
# modifications: staple 1-4, 4-11
# B11: I-1310 (peptide)
# peptide: Ac-[αAllylPro]D[Cha][B5(5)]DTAAFT[PyrS2″][Phe(2-Cl)][Bta][Thr(ol)]
# modifications: staple 1-4, 4-11
# B12: I-656 (peptide)
# peptide: Ac-[αAllylPro]DI[B5(4)]DE[Nle]AFQ[S8]F[Bta]Q-NH2
# modifications: staple 1-4, 4-11
# B13: I-657 (peptide)
# peptide: Ac-[αAllylPro]DI[B5(4)]DE[Nle]AFQ[S8]F[Bta]Q-NH2
# modifications: staple 1-4, 4-11
# B14: I-666 (peptide)
# peptide: Ac-[αAllylPro]DI[B5(19)]DEA[Nle]FQ[S8]F[Bta]Q-NH2
# modifications: staple 1-4, 4-11
# B15: I-667 (peptide)
# peptide: Ac-[αAllylPro]DI[B5(4)]DEA[Nle]FQ[S8]F[Bta]Q-NH2
# modifications: staple 1-4, 4-11
# B16: I-672 (peptide)
# peptide: Ac-[αAllylPro][SbGlu]I[B5(4)]DEAAFQ[S8]F[Bta]Q-NH2
# modifications: staple 1-4, 4-11
# B17: I-675 (peptide)
# peptide: Ac-[αAllylPro]DI[B5(4)][RbGlu]EAAFQ[S8]F[Bta]Q-NH2
# modifications: staple 1-4, 4-11
# B18: I-676 (peptide)
# peptide: Ac-[αAllylPro]DI[B5(4)][SbGlu]EAAFQ[S8]F[Bta]Q-NH2
# modifications: staple 1-4, 4-11
# B19: I-2554 (peptide)
# peptide: Ac-[αAllylPro]D[tBuAla][B5(4)]D[Phe(3-COOH)][Aib]AF[Nle][PyrS2″][3Thi][Bta][(bismethoxyethylamine)GlnR]-NH2
# modifications: staple 1-4, 4-11
# B20: I-2559 (peptide)
# peptide: Ac-[αAllylPro]D[tBuAla][B5(4)]D[Phe(3-COOH)][Aib]AF[Abu][PyrS2″][3Thi][Bta][(bismethoxyethylamine)GlnR]-NH2
# modifications: staple 1-4, 4-11
# B21: I-2566 (peptide)
# peptide: Ac-P[dαMeGly(allyl)]D[tBuAla][B5(25)]D[Phe(3-COOH)]AAFL[PyrS2″][Phe(2-CF3)][Bta]Q-NH2
# modifications: staple 5-12, 2-5
# B22: I-2567 (peptide)
# peptide: Ac-P[R5]D[tBuAla][B5(25)]D[Phe(3-COOH)]AAFL[PyrS2″][Phe(2-CF3)][Bta]Q-NH2
# modifications: staple 5-12, 2-5
# B23: I-2568 (peptide)
# peptide: Ac-[PyrR]AD[tBuAla][B5(25)]D[Phe(3-COOH)]AAFL[PyrS2″][Phe(2-CF3)][Bta]Q-NH2
# modifications: staple 1-5, 5-12 (inferred); not fully specified; printed as Ac-PyrR-Ala-Asp-Npg-B5-Asp-3COOHF-Ala-Ala-Phe-Leu-PyrS2-2F3MeF-BztA-Gln-NH2
# B24: I-2569 (peptide)
# peptide: Ac-[PyrR]ED[tBuAla][B5(25)]D[Phe(3-COOH)]AAFL[PyrS2″][Phe(2-CF3)][Bta]Q-NH2
# modifications: staple 1-5, 5-12 (inferred); not fully specified; printed as Ac-PyrR-Glu-Asp-Npg-B5-Asp-3COOHF-Ala-Ala-Phe-Leu-PyrS2-2F3MeF-BztA-Gln-NH2
# B25: I-2572 (peptide)
# peptide: Ac-P[dαMeGly(allyl)]D[tBuAla][B5(4)]D[Phe(3-COOH)]AAFL[PyrS2″][Phe(2-CF3)][Bta]Q-NH2
# modifications: staple 5-12, 2-5; also: -CH=CH- in each staple reduced to -CH2-CH2-
# B26: I-2573 (peptide)
# peptide: Ac-P[R5]D[tBuAla][B5(25)]D[Phe(3-COOH)]AAFL[PyrS2″][Phe(2-CF3)][Bta]Q-NH2
# modifications: staple 5-12, 2-5; also: staple -CH=CH- reduced to -CH2-CH2-
# B27: I-1082 (peptide)
# peptide: Ac-[αAllylPro]D[tBuAla][B5(4)]DDAAFN[PyrS2″][Phe(2-Cl)][Bta][Thr(ol)]
# modifications: staple 1-4, 4-11
# B28: I-1087 (peptide)
# peptide: Ac-[αAllylPro]D[tBuAla][B5(4)]DDAAFT[S8][Phe(2-Cl)][Bta]Q-NH2
# modifications: staple 1-4, 4-11; also: later-eluting HPLC peak staple isomer composition
# B29: I-1083 (peptide)
# peptide: Ac-[αAllylPro]D[tBuAla][B5(4)]DDAAFN[PyrS2″][Phe(2-Cl)][Bta][Phe(ol)]
# modifications: staple 1-4, 4-11
# Target: full-length beta-Catenin (Uniprot ID P35222) (Homo sapiens (Human)) (UniProt P35222)
# Assay: fluorescence polarization competition; displacement of 5FAM-TCF4(10-53) from full-length beta-catenin
# Target sequence in this assay (P35222 whole entry, one chain of several): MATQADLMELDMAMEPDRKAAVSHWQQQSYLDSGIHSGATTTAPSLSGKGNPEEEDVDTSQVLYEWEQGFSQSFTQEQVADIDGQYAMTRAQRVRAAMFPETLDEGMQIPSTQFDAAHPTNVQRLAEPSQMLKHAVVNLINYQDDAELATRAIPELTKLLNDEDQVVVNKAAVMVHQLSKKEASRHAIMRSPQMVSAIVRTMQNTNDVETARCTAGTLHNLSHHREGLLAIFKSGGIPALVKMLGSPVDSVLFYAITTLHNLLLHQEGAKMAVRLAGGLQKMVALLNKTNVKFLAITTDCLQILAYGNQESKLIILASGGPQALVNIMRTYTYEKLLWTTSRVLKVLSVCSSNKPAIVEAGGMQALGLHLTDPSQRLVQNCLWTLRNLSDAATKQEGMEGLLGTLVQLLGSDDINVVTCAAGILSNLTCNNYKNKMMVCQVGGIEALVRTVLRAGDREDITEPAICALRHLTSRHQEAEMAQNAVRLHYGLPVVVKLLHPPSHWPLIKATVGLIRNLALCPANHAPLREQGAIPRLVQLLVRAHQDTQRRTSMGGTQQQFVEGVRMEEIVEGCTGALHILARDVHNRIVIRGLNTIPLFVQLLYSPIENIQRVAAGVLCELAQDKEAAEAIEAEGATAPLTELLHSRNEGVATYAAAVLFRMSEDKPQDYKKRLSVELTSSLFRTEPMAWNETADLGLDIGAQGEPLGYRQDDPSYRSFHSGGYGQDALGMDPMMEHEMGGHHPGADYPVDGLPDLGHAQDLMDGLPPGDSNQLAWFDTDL
row,IC50,Binder
1,40 nM,B1
2,9 nM,B2
3,36 nM,B3
4,23 nM,B4

# Target: B-cat-Halo (beta-catenin HaloTag NanoBRET construct expressed in HEK293 cells) (UniProt P35222)
# Assay: NanoBRET in HEK293 cells, Bcat-Halo + TCF4-Luc, peptide at 10 uM
# B-cat-Halo (beta-catenin HaloTag NanoBRET construct expressed in HEK293 cells), sequence (P35222 whole entry): as the sequence (P35222 whole entry, one chain of several) above
row,NanoBRET % inh @ 10 uM,Binder
1,31%,B5
2,9.7%,B6
3,0.9%,B7
4,8.1%,B8

# Target: full-length beta-Catenin (Uniprot ID P35222) (Homo sapiens (Human)) (UniProt P35222)
# Assay: fluorescence polarization competition; 10 nM full-length beta-catenin with 10 nM 5FAM-TCF4(10-53) probe as competitor
# Target sequence in this assay (P35222 2-781 limits assumed): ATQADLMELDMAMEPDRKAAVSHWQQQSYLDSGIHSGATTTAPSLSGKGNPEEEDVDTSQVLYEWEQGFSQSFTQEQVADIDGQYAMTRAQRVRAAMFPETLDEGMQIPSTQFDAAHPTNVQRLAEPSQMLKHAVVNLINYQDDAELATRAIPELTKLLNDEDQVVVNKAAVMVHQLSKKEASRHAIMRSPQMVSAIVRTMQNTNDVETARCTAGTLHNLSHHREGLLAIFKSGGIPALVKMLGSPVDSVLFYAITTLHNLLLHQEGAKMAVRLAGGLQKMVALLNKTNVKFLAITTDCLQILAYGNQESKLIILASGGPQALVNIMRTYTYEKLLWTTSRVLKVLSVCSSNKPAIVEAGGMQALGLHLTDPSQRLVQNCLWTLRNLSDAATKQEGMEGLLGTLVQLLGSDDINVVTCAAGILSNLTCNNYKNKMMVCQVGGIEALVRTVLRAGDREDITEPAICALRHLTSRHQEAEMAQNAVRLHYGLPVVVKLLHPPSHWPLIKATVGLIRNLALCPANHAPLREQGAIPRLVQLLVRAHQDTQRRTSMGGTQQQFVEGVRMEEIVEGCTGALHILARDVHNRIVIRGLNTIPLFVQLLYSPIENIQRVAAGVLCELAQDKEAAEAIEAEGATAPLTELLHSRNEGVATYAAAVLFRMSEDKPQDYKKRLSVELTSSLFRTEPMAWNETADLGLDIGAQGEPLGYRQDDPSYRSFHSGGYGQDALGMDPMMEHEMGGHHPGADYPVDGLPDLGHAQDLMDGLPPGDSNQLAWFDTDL
row,IC50,Binder
1,92 nM,B7
2,79 nM,B8

# Target: full-length beta-Catenin (Uniprot ID P35222) (Homo sapiens (Human)) (UniProt P35222)
# Assay: fluorescence polarization competition; full-length beta-catenin, competitor 5FAM-TCF4(10-53) probe
EC50,IC50,Binder
21 nM,–,B9
59 nM,–,B10
124 nM,–,B11
–,73 nM,B12
–,46 nM,B13
–,626 nM,B14
–,585 nM,B15
–,5000 nM,B16
–,4520 nM,B17
–,5000 nM,B18

# Target: full-length beta-Catenin (Uniprot ID P35222) (Homo sapiens (Human)) (UniProt P35222)
# Assay: fluorescence polarization competition: peptide titrated against 10 nM full-length beta-catenin + 10 nM 5FAM-TCF4(10-53) probe
# Target sequence in this assay (P35222 2-781 limits assumed): as above
row,EC50,Binder
1,6 nM,B5
2,19 nM,B6
3,92 nM,B7
4,79 nM,B8

# Target: full-length beta-Catenin (Uniprot ID P35222) (Homo sapiens (Human)) (UniProt P35222)
# Assay: fluorescence polarization competition; full-length beta-catenin + 5FAM-TCF4 10-53 probe
# Target sequence in this assay (P35222 2-781 limits assumed): as above
row,IC50,Binder
1,21 nM,B9
2,59 nM,B10
3,124 nM,B11

# Target: full-length beta-Catenin (Uniprot ID P35222) (Homo sapiens (Human)) (UniProt P35222)
# Assay: fluorescence polarization competition; competitor 5FAM-TCF4(10-53) on full-length beta-catenin
# Target sequence in this assay (P35222 whole entry, one chain of several): as the sequence (P35222 whole entry, one chain of several) above
row,IC50,Binder
1,8 nM,B19
2,8 nM,B20
3,181 nM,B21
4,522 nM,B22
5,4770 nM,B23
6,1950 nM,B24
7,67 nM,B25
8,234 nM,B26

# Target: full-length beta-Catenin (Uniprot ID P35222) (Homo sapiens (Human)) (UniProt P35222)
# Assay: fluorescence polarization competition; full-length beta-catenin + 5FAM-TCF4(10-53) probe as competitor
# Target sequence in this assay (P35222 2-781 limits assumed): as the sequence (P35222 2-781 limits assumed) above
row,EC50,Binder
1,5 nM,B27
2,9 nM,B28
3,40 nM,B1
4,8 nM,B29
5,9 nM,B2
6,36 nM,B3
7,23 nM,B4

# Target: full-length beta-Catenin (Uniprot ID P35222) (Homo sapiens (Human)) (UniProt P35222)
# Assay: fluorescence polarization competition; peptide displaces 5FAM-TCF4(10-53) from full-length beta-catenin
# Target sequence in this assay (P35222 2-781 limits assumed): as above
row,IC50,Binder
1,6 nM,B5
2,19 nM,B6

# Target: full-length beta-Catenin (Uniprot ID P35222) (Homo sapiens (Human)) (UniProt P35222)
# Assay: cell-based or functional assay
# Target sequence in this assay (P35222 2-781 limits assumed): as above
row,DLD1 reporter assay Abs IC50,Binder
1,4800 nM,B27
2,> 20000 nM,B28
3,> 20000 nM,B1

# Target: full-length beta-Catenin (Uniprot ID P35222) (Homo sapiens (Human)) (UniProt P35222)
# Assay: fluorescence polarization competition, full-length beta-catenin with 5FAM-TCF4(10-53) probe as competitor
row,EC50,Binder
1,73 nM,B12
2,46 nM,B13
3,626 nM,B14
4,585 nM,B15
5,5000 nM,B16
6,4520 nM,B17
7,5000 nM,B18

# Target: full-length beta-Catenin (Uniprot ID P35222) (Homo sapiens (Human)) (UniProt P35222)
# Assay: fluorescence polarization competition; peptide titrated against 10 nM full-length beta-catenin + 10 nM 5FAM-TCF4(10-53)
row,IC50,Binder
1,5 nM,B27
2,9 nM,B28
3,8 nM,B29

# Target: Bcat-Halo (UniProt P35222)
# Assay: NanoBRET Abs IC50 in HEK293 cells; Bcat-Halo with TCF4-Luc as competitor
# Bcat-Halo, sequence (P35222 whole entry): as the sequence (P35222 whole entry, one chain of several) above
row,IC50,Binder
1,14100 nM,B27
2,9300 nM,B28
3,> 20000 nM,B1
4,18800 nM,B29
5,9000 nM,B2
6,> 20000 nM,B3
7,> 20000 nM,B4
